Source: the nanobody polyreactivity screen of Harvey et al. (2022)

Test: yeast display, Sf9 membrane polyspecificity reagent, FACS + sequencing; frameworks hold sequencing errors
Summary of the method: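 Sorting gates, low and high (top ~1%), were placed on anti-HA fluorescence to track expression and on streptavidin fluorescence to track reagent binding. A clone's polyreactivity label is taken from the gate it came out of. The reagent was 10% biotinylated, detergent-solubilized Sf9 membrane, applied for 1 hour at 4 °C to galactose-induced yeast display cells.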

| Sequence | polyreactivity (PSR sort gate) |
| --- | --- |
| LVQLQDSGDGLVQAGGSLRLSCAASGNIFDADIKGWYRQAPGKERELVASIGIGGTTYYADSVKGRFSISRDNEKNTVYLQMNSLKPEDTAVYYCAARYLYYAYSYWGQGTQVTVSS | low polyreactivity |
| LVQLQESGGGLVQAGGSLRLSCAASGTISPGGNMGWYRQAPGKERELLASINVGGSTNYADSVKGRFTISRDNAINTVFLQMNSLKPDDNAVFYCAVWGRNRLQLSYWGQGTQVTVSS | low polyreactivity |
| LVQLVESGGGLVQAGGSLRLSCAASGIIFRFYDMGWYRQAPGKERELVAAISWDGTSTYYADSVKGRFTISRDNAKNTVSLQMNSQKPEDTAVYYCAADWVGSPWWYLWYGYWGQGTQVTVSS | high polyreactivity |
| LVQLVESGGRLVQAGGSLRLTCAATGSIFDGNAKGWYRQAPGKDRELVADISRGGSTYYADSVKGRFTISSDNAKNTVYFQLNSLKPEDTAVYDCTVEFFFWPYEYGYWGQGTQVTVSS | low polyreactivity |
| LVQLVESGVGLVHAGRSLRLSCAASGSIFPYYTMGWYRPAPGKERELVAAISGSGGSTYYADSVKGRFTISRDNAKNTVYLQMNSLKPEYTAVYYCAAYRRTWFDYWGQGTQVTVSS | high polyreactivity |
| LVQQVESGGGLVQAVGTLRISCAASGQILYSYAMGWYRQAPGKERELVAAITGGVSTNYADSVKGRFTISRDNAKNTVYLQMNSLKPEDTAVYYCNVELWEYSYIDEYWGQGTQLTVSS | low polyreactivity |
| PDQLVESGGGLVQAGGSLRLSCAASGLNFYDNMGWYIQATGKERELVSAISSSGGSTSYADSVKGRFTISRDNAKNTVYLQMNSLKPEDTAVYYCAADSSPAYLGFVGFDYWGHGTQVTVSS | low polyreactivity |
| PLQLVESGGGLVQAGGSLRLSCAASGRTFRATTMGWYRQAPGKERELVAAISHSGGSTYYADSVKGRFTISRDNAKNTVYLQMYSLKPEDTAVYYCATDGGSYSWASPRVDYWGQGTQVTVSS | low polyreactivity |
| PVQLVDSGGGLVQAGGSLRLSCAASGSIFYRNALGWYRQAPGKERELVAAISGRGGSTNYADSVKGRFTISRDNAKNTVYLQMNSLKPEDTAVYYCNRYGVANILVRGGYWGQGTQVTVSA | high polyreactivity |
| PVQLVESGGGLVQAGGPLRLSCAASGFNITSYVMGWYRPAPGKERELVAAISAGGGSTYYADSVKGRFTISRDNAKNTVYLQMNSLIPDDTAVYYCAADPLYEQIYYAIYHYNDGYDYWGQGTQVTVSS | high polyreactivity |
| PVQLVESGGGLVQAGGSHRLSCAASGSIFYFNAMGWYRQAPGKERELVAVITDRGSTYYSDSVKGRFTISRDNAKNTVYLQMNSLKPEDTAVYYCAAQTPGVYLRQIGGYYYWGQGTQVTVSS | low polyreactivity |
| PVQLVESGGGLVQAGGSLPLSCAASGRTFPFNAMRWYRQAPGKERELVATINYRGGSTYYADSVKGRFTISRDNAKNTVYLQMNSLKPEDTAVYYCAAGKIGRYHYDYWGQGTQVTVSS | high polyreactivity |
| PVQLVESGGGLVQAGGSLRLSCAACGGIFPGNAMGWYRQAPGKVRELVATISYSGGSTYYADSVKGRLTISRDNAKNTVYLQMNSLKPEATAVYYCAARGYKPTRSRRTEYGYWGQGTQVTVSS | high polyreactivity |
| PVQLVESGGGLVQAGGSLRLSCAASGFTFANYAMGWYRQAPGKERELVAAISRGGTSTYYADSVKGRFTISRDNAKNTVYFQMNSLKPEDTEVYFCNAVKVGYSLYDYWGQGTQVTVSS | high polyreactivity |
| PVQLVESGGGLVQAGGSLRLSCAASGITIYYYGMGWYRQPPGKERELVAAITTGVNTNYADSVKGRFTISRDNAKITVYLQMNSLKPEDTAVYYCAAEYRIPYFFTYGYWGQGTQVTVSS | high polyreactivity |
| PVQLVESGGGLVQAGGSLRLSCAASGRIFSSYTMGWNIQAPGKERELVAAISWRGGSTYYADSVKGRFTISRDNAKNTVYLLMNSLKPEDTAVYYCAADSRSHPGDYWGHGTQVTVSS | low polyreactivity |
| PVQLVESGGGLVQAGGSLRLSCAASGSTFAYNAMGWYRQAPGKERELVAAISWSGGTTYYADSVKGRFTISPDNAKNPVYLQMNSLKPEDTAVYYCAADVYLNRRQRMYYWGQGTQVTVSS | high polyreactivity |
| PVQLVESGGGLVQAGGTLRLSCDATGITFKLNAMGWYRQAPGKERELVAAITSTGGSTYYADSVKGRFTISRDNAKNTVYLQMNSLNPEDTAVYYCAADRYSYIFYYYWSYDYWGQCTQVTVSS | high polyreactivity |
| PVQLVESGGGVVQAGGSLRVSCAASGSIFYVYAMGWYRQAGGKEWELVAAINPSGGSTFYADSVKGRFTISRDNAKTTDYLQMNSLTPEHTAVYYCAAERYRYRSTDTMGYWGQGTQVTVSS | low polyreactivity |
| PVQLVESGGVLVQAGGILRLSCAASGFTFYLYGMGWYRRAPGKERELVAAISRSGGSTYYADSVKGRFTISRDNAKNTVYLQMNSLKPEDPAVYACAVDKQGSRRRIISDEMYYWGQGTQVTVSS | high polyreactivity |
| PVQLVESGGVLVQAGGSLRLSCAASGFTFWLYAMGWYRQAPGNEREFVAAISPSGGSTYADSVKGRFTLSRDNAKNTVYLPMNRLKPEDTAVYYCNDGYLLYYDYHLFYWGQGTQLTVSS | low polyreactivity |
| PVQLVETGGGLVQAGGSLRLSCAASGRTFYRYAMGWYRQAPGKERELVAAITRRVDSTSYADSVKGRFTISRDNAKNTVYLQMNSLKPEDTAVYYCATLVQGSVYGVYGGGYWGQGTQVTVSS | low polyreactivity |

| Sequence | polyreactivity (PSR sort gate) |
| --- | --- |
| QAQLVESGGGLVQAGGSLRLSSAASGFIFWGNAMGWYRQAPGKERELVAGIRSLGGTTSYADSVKGRFTISRDNAKNTVYLQMNSLKPEDTAVYYCAAGYGAEFDYWGQGTQVTVSS | low polyreactivity |
| QDHLVESGEGLVQAGGSLRLSCAASGFVFAYYTMGWYRTAPGKERELVAAISRGGGRTYYADSVKGRFTISRDNAKNTVYLQMNSLKPEDTAVYYCAARNGPSIKFAVTGMDYWGQGTQVTVSS | high polyreactivity |
| QDHLVESGGGLVQAGGSLRLSCAASGSPFPSYAMGWYRQAPGKERELVAAINSGGGTTYADSVQGRFTISRDKAKNTVYLQMNSLKPEDTAVYYCARGPLSWHSYVEAEYGYWGQGTQVTVSW | low polyreactivity |
| QDHLVESVGGLVQAGRSLRLTCAASGGTFYYKTMGWYRQAPGKESQLVAAITSGTSTNYADSVKGRFTISRDNAKNTVYLQMNSLKPEDTAVYYCAADPDADDPRRGYDYWGQGTQVTVSS | low polyreactivity |
| QDKLVESAGGLVQAGGSLRLSCADSGSIFPFNAMALNRQATGKVREMVASITSGGTTYYADSLKGRFTISRDNAKNTVYLQMNSLKPEDTAVYYFAGDWVWRVLNSYGVRYDYWGQGTQVTVSS | low polyreactivity |
| QDKLVESGGGLVQAGASLRLTCAASGLIIYRNAMGWYIQAPGKERELVATISRRGGRTYYADSVKGRFTISRDNAKNNVYLQMNSLKPEDTAVYYCIADDYRSRGGYDSWGQGTQVTVSS | high polyreactivity |
| QDKLVESGGGLVQAGGSLRLSCAASGSILGGYAMGWNRPAPGKAREFVAAISRRGASTFYADSVKGRFTISRDNAKNTVYLQMNCLKPEDTAVYYCNARAYGRIDGHSATFGYWGQGTQVTVSS | high polyreactivity |
| QDKLVESGGGLVQAGGSLRLSCAPSGSIFYGYAMGWYRQAPGKESELVAAMSSTGGTTYYADSVKGRFTISRDNAKNTVYLQMNSQKPEDTAVYYCAKRGRTWRYPFDYWGQGTQVTVSS | high polyreactivity |
| QDQHVESGGGLVQAGGSLRLSCAASGFTFPLKAMGWSRQAPGKERELVAVINYSDGSTYYADSVKGRFSISRDNAKNTVYLQMNSLTPEDTAVYYCAARYYTTYYWGQGTQVTVSS | high polyreactivity |
| QDQHVESGGGLVQAGGSLRLSCAASGIIFWWYDMGWFRQAPGKERELVAAISTGSRTNYADSVKGRFTISRDNAKNTVYLQMNSLKPEDTAVYYCAGEWVGFSGYYGSGYEMDYWGQGTQVTVSS | low polyreactivity |
| QDQHVESGGGLVQAGGSLRLSCAASGIIFYRYAMGWYRQAPGKERELVAAIRRSGGSTFYADSVKGRFTISRDNAKNTVYLQMNCLKPVDTAVYYCAAVYTGDPYGYWGQGTQVTVSS | high polyreactivity |
| QDQHVESGGGLVQAGGSLRLSCAASGITFNKYAMGWYRQAPGKERELVAAISFSGGSTYYADSVKGRFTISRDNAKNTVYLQMNSLKPEVTAVYYCAAVWGYVIWVDTAVYREYDYWGQGTQVTVSS | high polyreactivity |
| QDQHVESGGGLVQAGGSLRLSCAASGSNFVINAMGWYRQAPGKEREWVAAITSSGGSTYYADSVKGRFTISRDNAKNTVYLQMNSLKPEDTAVYYCAAYVRTAFGRMNYWGQGTLVTVSS | high polyreactivity |
| QDQHVESGGGLVQAGGSLRLSCAASGSTFKIYAMGWYRQPHGKESELVARITGRGGSTYYADSVKGRFTISRDNAKNTVYLQMNSLKPEDTAVYYCAARVYTYYDDLHKRYYWGQGTQVTVSS | high polyreactivity |
| QDQHVESGGGLVQAGGSLRLSCAASGSTFPYYAMGWYRQAPGKERELVAAITSSGGSTYYADSVKGRFTISRVNAKNTVYLQMNSLKPEDTAVYYCANGYGPYRQMNYWGQGTQVTVSS | low polyreactivity |
| QDQHVESGGGLVQAGGSLRLSCDASGFIFPYYVMGWYRQAPGKERELVAGISSGGRTNYADSVKGRFTISRDNAKNTVYLQMISLKPEDTAVYYCNDRWYRYPPRVRLYYWGQGTQVTVSS | high polyreactivity |
| QDQHVESGGGLVQAGGSLRLSCDASGFIFTYYAMGWYRQAPGKERELVAAISRSGGNTYYADSVKGRFTISRDNAKNTVYLQMNSLIPEDTAVYYCAAETRRGGYWGYEYYYWGQGTQVTVSS | high polyreactivity |
| QDQHVESGGGLVQAVGSLRLSCAASGRIIVDYAMGWYRQAPGKERDLVATITNGGSTNYADSVKGRFTISRDNAKNTVYLQMNSLKPEDTAVYYCAVDYLLDYYSYIEDYWGQGTQVTVSS | low polyreactivity |
| QDQIGESGGGLVQAGGSLSLSCAASGTTIVNNAMGRNRQARWKERELVAAITQRGGRSSYADSVNGRFTISRDNAKNTVYLQMNSLKPEDTAVYYCATVATCRHKGKYNYLGQGTQVTVSS | low polyreactivity |
| QDQIVESGGGLVQAGGSLRISCAPSGSILGYYGMGWYRQAPGKERELVAAISSSGNTNYADSVKGRFTISRDNAKNTVYFQMNSLKPDDTAVYYCAASFQYVAYFLYVYWGQGTQVTVSS | low polyreactivity |
| QDQIVESGGGVVQAGGSLRLSCASSGRIFYDYLGWNRQAPGKETELDADISSGGSTHYADSVKGRFTISRDNAKNTVYLQMNSLKGEDTAVYYCIAVLVLSYDKDWRLIEMDYWGQGTHVTVSS | low polyreactivity |
